Laboratory results published in patent publication US7655619B2, “Insulin-associated peptides with effects on cerebral health” (Thomas Jefferson University, priority 2002, dated 2010).

B1: α2HSG: endogenous inhibitor of insulin receptor tyrosine kinase activity; insulin antagonist (protein, UniProt P02765 19-300; P02765 341-367, looked up)
Alpha-2-HS-glycoprotein chain … 1: APHGPGLIYRQPNCDDPETEEAALVAIDYINQNLPWGYKHTLNQIDEVKVWPQQPSGELFEIEIDTLETTCHVLDPTPVARCSVRQLKEHAVEGDCDFQLLKLDGKFSVVYAKCDSSPDSAEDVRKVCQDCPLLAPLNDTRVVHAAKAALAAFNAQNNGSNFQLEEISRAQLVPLPPSTYVEFTVSGTDCVAKEATEAAKCNLLAEKQYGFCKATLSEKLGGAEVAVTCMVFQTQPVSSQPQPEGANEAVPTPVVDPDAPPSPPLGAPGLPPAGSPPDSHVL
Alpha-2-HS-glycoprotein chain … 2: TVVQPSVGAAAGPVVPPCPGRIRHFKV

Experiments:
[1] = system: rats; experiment: one-trial passive avoidance procedure (associative learning), intranasal pretreatment; type: in vivo, Male Sprague Dawley rats
Method: Passive avoidance was performed in an apparatus (MED Associates Inc., St. Albans, Vt.) consisting of one dark chamber and one light chamber that can be divided by a guillotine door. The training procedure was executed as previously described (N. Venable et al. Psychopharmacology 100, 215 (1990)). Rats were administered a 1.0 mA shock for 3 sec, mice a 0.5 mA shock for 5 sec. Retention tests were performed either at 1, 3 or 7 days post-pairing. Maximum latency was 600 sec for rats, 300 sec for mice.
A control group received vehicle (5% cyclodextrin) alone.

[2] = system: rats; experiment: Morris Water Maze (spatial learning), intranasal administration; type: in vivo, Male Sprague Dawley rats
Method: Spatial learning was assessed using the Morris Water Maze (Morris et al. Nature, 1982, 297: 681). […] Animals were anaesthetized with isofluorane then administered peptide intra-nasally 20 min before testing. Rats were given four training trials. 48 h after training, a retention test was performed: rats were allowed to find the hidden platform for one trial. […] Latency to find the platform was considered a measure of retention of spatial learning.

[3] = blood glucose levels by glucometer after intranasal administration; settings: doses 3-30 μg, twenty minutes after administration, vs vehicle
Method: Rats (N-5/group) were first anesthetized with isoflorane anesthesia and then administered vehicle (5% (2,6-DI—O-methyl)β-cyclodextrin) or insulin (3-30 μg, 28 USP units/mg) intra-nasally. Twenty minutes later, rats were sacrificed and blood glucose levels rapidly determined with a glucometer (Elite XL, Bayer).

[4] = system: rats; experiment: locomotor activity in open field testing chamber; settings: 3-30 μg intranasal, 30 minutes in open field chamber, data not shown
Method: Following pretreatment, the rats were placed for 30 minutes in an open field testing chamber (17″×17″×12″ H) where movement was detected every 50 ms by infrared photo beam emitter and detector strips at 1″ and 10″ from the bottom of the chamber. The activity chambers were lined to a PC computer and data was compiled via Activity Monitor Software (4.0, MED Associates, St. Albans, Vt.).

[5] = system: rats; experiment: one-trial passive avoidance with insulin antagonist α2HSG alone or in combination; type: in vivo; settings: for latency time in passive avoidance: compared to vehicle alone
Method: After a 20 minute pretreatment time, rats were placed in the light side of a two-chambered light/dark Plexiglas passive avoidance apparatus (MED Associates). Once the rat entered the dark chamber, a guillotine door was closed and a 1.0 mA shock (3 sec) was administered. The door was then raised and the rat was allowed to re-enter the light side. Latency (max 600 sec) to enter the dark chamber was taken as a measurement of associative learning.

| Molecule | retention of associative learning (24 hours) ([1]; FIG. 9, 24 hours) | latency to enter the dark chamber (associative learning) ([1]; intranasal 10 μg dose, pretreatment 20 min, compared to vehicle) | latency to find hidden platform, retention test ([2]; intranasal 3 μg, 48 hours following training, compared to vehicle) | latency to find submerged platform, acquisition during training ([2]; intranasal 3-30 μg, four training trials, between groups incl. vehicle) | swimming speed ([2]; intranasal, compared to vehicle) | blood glucose levels [3] | distance traveled (locomotor activity) [4] | latency time in passive avoidance ([5]; insulin 10 μg alone intranasal) | latency time in passive avoidance ([5]; α2HSG 30 μg alone) | effect on enhancement of latency times by A-chain ([5]; α2HSG 30 μg in combination with A-chain 3 μg, intranasal) | effect on enhancement of latency times by insulin ([5]; α2HSG 3-30 μg in combination with insulin 10 μg, intranasal) |
| --- | --- | --- | --- | --- | --- | --- | --- | --- | --- | --- | --- |
| insulin: insulin from bovine pancreas (C254H377N65O75S6), 28 USP units/mg, from Sigma | enhances retention of associative learning | significantly (P<0.05) enhanced latency | significantly deceased latency | No significant differences occurred in acquisition between groups during training | do not affect swimming speed compared to vehicle | no significant differences between treatment groups | did not differ between treatments | enhanced latency time |  |  |  |
| B1 |  |  |  |  |  |  |  |  | no difference between antagonist alone and vehicle alone | blocked enhancement of latency times by A-chain | blocked enhancement of latency times by insulin |
